Reference: the supplement of paper PMC9170038

Tests used:
[1] = system: MS2 coat protein; assay: apparent KD of MS2 coat protein; designed switch direction (-1 OFF switch, 1 ON switch): 1; higher = weaker reporter binding
Summary of the method: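 Apparent KD, taken as the median over clusters for each design, was obtained by curve-fitting normalised cluster fluorescence. Designed RNA switches had been transcribed on Illumina chips by stalled E. coli RNA polymerase and titrated with SNAP-549-labelled MS2 coat protein, doubling from 0.7 or 1.5 nM to 3 µM.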

[2] = system: MS2 coat protein; assay: apparent KD of MS2 coat protein; higher = weaker reporter binding; settings: Eterna round: R107
Summary of the method: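 Illumina sequencing clusters were used for on-chip transcription of designed RNA switches. Titration with SNAP-549-labelled MS2 coat protein followed, in twofold steps from 0.7 or 1.5 nM to 3 µM in 100 mM Tris-HCl pH 7.5, 80 mM KCl, 4 mM MgCl2, without or with constant ligand. Apparent KD is each design's median of fits to normalised cluster binding curves.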

[3] = input ligand: microRNA oligo, concentration not stated
[4] = input ligand: theophylline 20 uM
[5] = input ligand: tryptophan 2.4 mM
[6] = input ligand: theophylline 2 mM

Row | Sequence | apparent KD of MS2 coat protein ([2]; input ligand: arginine 13.2 mM) [nM] | apparent KD of MS2 coat protein [2, 4] [nM] | apparent KD of MS2 coat protein [2, 5] [nM] | apparent KD of MS2 coat protein ([2]; input ligand: none) [nM] | apparent KD of MS2 coat protein [2, 6] [nM] | other results
1 | GUGGUCAGACAUGAGGAUCACCCAUGUGGAAUAAAUAACGGACAGGAUAUUGAAUAUAGGAUAUACAAGAAGGGUUGAUUGGUG (Eterna round: R96, puzzle: Same State NG 3) |  |  |  |  |  | apparent KD of MS2 coat protein ([1]; input ligand: FMN 200 uM): 83.6 nM; apparent KD of MS2 coat protein [1, 3]: 47.7 nM; apparent KD of MS2 coat protein ([1]; input ligand: none): 73.9 nM
2 | ACAAGCUUUUUAGGAAGUGAAGGGAGGGAACAUGAGGAUCACCCAUGUAAGUGGAAUGAAGAAGGAGCACGUCUUAU [JR_SHM208A_Sub097] (puzzle: Sensor for hsa-mir-208a) |  |  |  |  |  | apparent KD of MS2 coat protein ([1]; Eterna round: R95, input ligand: FMN 200 uM): 32.7 nM; apparent KD of MS2 coat protein ([1]; Eterna round: R95, input ligand: microRNA oligo, concentration not stated): 26.6 nM; apparent KD of MS2 coat protein ([1]; Eterna round: R95, input ligand: none): 43.1 nM
3 | AUACAUGAGGAUCACCCAUGUAAUUAAUUAACUUGUAAGAUCAAGGAUAUCAGCUCGAUUAGAGCUGAGAAGGUGAUCACAUGU [SSNG3/21-C2] (Eterna round: R96, puzzle: Same State NG 3) |  |  |  |  |  | apparent KD of MS2 coat protein [1, 3]: 116 nM
4 | UAAGUAUGUUGAGGAUAUUAUGUUUAGUGUGAUGACAUGAGGAUCACCCAUGUGUUAUGAGUUUUUAAGAAGGCAACAUACUUA [JR_SSNG2_Sub091] (Eterna round: R96, puzzle: Same State NG 2) |  |  |  |  |  | apparent KD of MS2 coat protein ([1]; input ligand: FMN 200 uM): 35.1 nM; apparent KD of MS2 coat protein [1, 3]: 41.7 nM; apparent KD of MS2 coat protein ([1]; input ligand: none): 55.2 nM
5 | GGUAGGUUACUACCAACACAUGAGGAUCACCCAUGUUUUGGGAAGGAUAUGGUACCUAUUUGGUACCAGAAGGUCCAGUUAAUU [Fiskers NG3ss - 17] (Eterna round: R96, puzzle: Same State NG 3) |  |  |  |  |  | apparent KD of MS2 coat protein ([1]; input ligand: FMN 200 uM): 47.4 nM; apparent KD of MS2 coat protein [1, 3]: 66.6 nM; apparent KD of MS2 coat protein ([1]; input ligand: none): 69.5 nM
6 | GGUAGCAGGACUGAUACCAGUCCAGCGAAUCAUACGACGCAACAUGAGGAUCACCCAUGUGACCCUUGGCAGCAGACUGCUACCG [Same State Theophylline B GF 28] | 29.4 | 24.8 | 26.7 |  |  | 
7 | UCUAGUGCGGGAAGGAGCGCCAUACAUGAGGAUCACCCAUGUUGAGCAUGCUCGUGUACUAGGCAGGUAGGUCGCCCGCUCUACG [Radionle] | 28.8 | 30.9 | 23.3 | 27.2 | 23.5 | 
8 | UGGAAAGCACAUGAGGAUCACCCAUGUGAUACCAGCUGAAACUAAGGCCCUUGGCAGCACAUGGUACCAACCCUUUGGUAGUCCA [Vearedqu] | 10.9 | 19.9 | 10.3 |  |  | 
9 | AGUCUUGAACGAAGGAGCGACGUACAUGAGGAUCACCCAUGUGGAGCGAAAGCUCCGUAACGUCAGGUAGGUCGCGUUCGAGACA [Omei Arginine B SS A v3] | 6.89 | 15.6 | 12.5 | 9.25 | 13.1 | 
10 | GGAUAGGACACGGCCGCCACUGCGCUAGGAUACUAGAACAUUUCCUCACAUGAGGAUCACCCAUGUAGGACCGGGUGUCCUAUCG | 34 | 76.7 |  |  | 60.4 | 
11 | ACAUGAGGAUCACCCAUGUCAGGGCACGAUACCAGCUGAUCCGGUGGCCCUUGGCAGCGUGACGUUUGGUCCCGCGGAUCACACG [xxmullin] | 92.4 | 262 | 404 | 326 | 334 | 
12 | AAUAAUAACUGAAGGAGCGUCUAUAUUACAUGAGGAUCACCCAUGUUUAUAUGGUAUUAUAGACAGGUAGGUCGCAGAUUUUUUA [JR_SSArginiB_Sub016] | 14.5 | 22.1 | 16.3 | 16.6 | 18.6 | 
13 | AAUAAACAUGAGGAUCACCCAUGUAGGGUGCGAGGACCGGUACGGCCGCCACUCGGGUGAAAACAUGAGGAUCACCCAUGUUAAA [Cloverleaf #DoubleMS2 #GUTurnoff] | 75.5 | 176 |  |  | 229 | 
14 | UGACAUUGCUGCGAUACCAGACAUGAGGAUCACCCAUGUACCAAGGUAACCGAAAGGCAUGUCCCUUGGCAGCGCAGCAAUGUCU [MAT - Exclusion Theophlline B - Mod of Eli - D13] | 12.8 | 21 | 12.2 |  |  | 
15 | AAAUAAAUACAUGAGGAUCACCCAUGUGAAGGAGCGCGCGUUAGCGCAGGUAGGUCGCACAUGAAUAACUCCGCGCGAAAGCGCA [MAT - Exclusion Arginine A - Mod of Eli - D11] | 11.8 | 23.7 | 16.4 | 17.4 | 19.6 | 
16 | AAAUAAAUAACUGAUACCAGUGGACUGACAUGAGGAUCACCCAUGUUGGGUUUUGUUGUCCACCCUUGGCAGCAGGGAUAUAAAA [#24 Exclusion-TheophyllineB] | 24.4 | 54.7 | 43.4 | 38.5 | 70.9 | 
17 | AGCAGCUGGUUUCUUUUCUUUACAGCUGCACGAGGACCGGUACGGCCGCCACUCGAGGACAUGAGGAUCACCCAUGUGCCGGUCG | 34.1 | 40.6 | 22.7 | 25.6 | 49.7 | 
18 | AAUGCCGGAUCGGCCGCCACUGGUUGGCUCUGUGUACAUGAGGAUCACCCAUGUCCAUCCCAAACCAGGACCGGGAUCUUUGUGU [Veonmale] | 14.6 | 17.4 |  |  | 13.5 | 
19 | UUGUUGUUUGGAAGGAGCGUGUAUGAGUUAGAACAUGAGGAUCACCCAUGUUGGAUGAUAGCACAGGUAGGUCGCCGGGUGGUGG [11.Y] | 8.43 | 18.4 | 11 | 24.1 | 66.8 | 
